Measured values published in US20230265185A1 (NATIONAL RESEARCH COUNCIL OF CANADA, published 2023).

Legend:
[1] = molecular target: T1, recombinant extracellular domain of the predominant human CD22-beta isoform (CD22-ECD) (human, UniProt P20273 20-687, CHO-expressed glycoprotein. Capture on an SA chip implies biotinylation, but the patent does not state it for SPR.); assay: SPR, Biacore T200, VHH over immobilized CD22-ECD
T1 construct: Expressed in CHO-3E7 cells, IMAC and SEC purified, monomeric fraction; Results say it was immobilized onto a CM5 dextran chip; also called human CD22-ECD; hCD22 ecto-domain
T1 sequence: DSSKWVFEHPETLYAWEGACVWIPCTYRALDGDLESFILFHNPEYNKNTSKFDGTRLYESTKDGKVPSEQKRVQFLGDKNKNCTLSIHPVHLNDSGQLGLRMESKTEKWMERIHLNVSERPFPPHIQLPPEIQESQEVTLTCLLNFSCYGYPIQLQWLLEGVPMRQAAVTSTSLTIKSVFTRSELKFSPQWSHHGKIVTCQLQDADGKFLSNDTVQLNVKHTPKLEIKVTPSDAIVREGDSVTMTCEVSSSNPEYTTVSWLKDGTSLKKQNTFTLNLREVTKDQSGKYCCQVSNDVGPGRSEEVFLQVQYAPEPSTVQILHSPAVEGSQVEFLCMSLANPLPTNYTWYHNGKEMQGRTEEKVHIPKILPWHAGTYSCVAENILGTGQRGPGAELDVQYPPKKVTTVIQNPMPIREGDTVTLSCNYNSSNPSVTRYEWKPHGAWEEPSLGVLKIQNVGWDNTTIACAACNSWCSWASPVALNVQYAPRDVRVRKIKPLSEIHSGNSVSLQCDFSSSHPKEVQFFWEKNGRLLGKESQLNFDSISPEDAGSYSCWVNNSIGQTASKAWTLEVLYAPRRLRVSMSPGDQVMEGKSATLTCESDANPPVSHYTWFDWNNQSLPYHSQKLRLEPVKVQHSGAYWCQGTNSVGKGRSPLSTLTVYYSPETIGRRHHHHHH
Method: For surface Plasmon resonance, 21 selected VHHs were passed though size exclusion columns, superdex 75 (GE Healthcare), respectively, in 10 mM HEPES, pH 7.4, containing 150 mM NaCl, 3 mM EDTA, monomeric sdAb fractions were collected and protein concentrations were determined by measuring absorbance at 280 nm (A280). Analysis were performed with Biacore T200 instrument (GE Healthcare). All measurements were carried out at 25° C. in 10 mM HEPES, pH 7.4, containing 150 mM NaCl, 3 mM EDTA and 0.005% surfactant P20 (GE Healthcare). Approximately 1919 RUs of the recombinant monomeric CD22-ECD (obtained after SEC purification of the CD22-ECD) were captured on SA sensor chip (GE Healthcare) at a flow rate of 5 uL/min. Various concentration of the monomeric VHHs were injected over CD22-ECD surface, respectively using an SA surface as a reference at a flow rate of 40 µL/min. Surfaces were generated by washing with running buffer. Data were analysed with BIAevaluation 4.1 software.
The monomeric fraction of all 21 VHHs were used for SPR experiment where the human CD22-ECD was immobilized onto the CM5 dextran chip and various VHH concentration (0.6-400 nM) were passed over the sensor chip. […] All of the data collected fit a 1:1 binding model.

[2] = molecular target: T2, hCD22 fragment Bin 7, IVR7 (aa561-668), displayed on yeast cells (human, UniProt P20273 580-687); assay: yeast display cell ELISA, OD on denatured over non-denatured CD22 fragment
T2 construct: range 561-668; Range is counted on the mature ECD, not on the UniProt entry; on P20273 it would be 580-687 (my arithmetic); also called CD22 Sub-Domain 7; not shown: Aga2-HA display fusion partner of vector pPNL6; MYC tag
T2 sequence (looked up): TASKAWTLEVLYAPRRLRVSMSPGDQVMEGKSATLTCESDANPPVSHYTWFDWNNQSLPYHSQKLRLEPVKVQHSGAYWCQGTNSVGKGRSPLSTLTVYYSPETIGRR
Method: (§1) The YSD vector (pPNL6) was from The Pacific Northwest National Laboratory, USA. […] The HRP activity was assayed with substrate TMB (tetramethyl benzidine) according to the manufacture’s conditions and read at OD₄₅₀.
(§2) Table 7 depicts the assessment of the nature of the epitopes of CD22 sdAbs to determine if the epitopes for the sdAbs are continuous (linear) or non-continuous (conformational). […] The binding of each sdAb to native and denatured CD22 fragments was measured as OD₄₅₀, and the ratio of the binding to denatured CD22 to non-denatured CD22 was calculated, with the ratio ≥ 0.5 indicative linear (L), and the ratio < 0.5 indicative of conformational (C) epitopes.

[3] = molecular target: T2, hCD22 fragment Bin 7, IVR7 (aa561-668), …; assay: yeast display cell ELISA, biotinylated sdAb 250 nM
Method: as §1
(§3) The wells that gave rise to OD₄₅₀ above 0.25 were highlighted, indicating significant antibody-antigen interactions. All the sdAbs tested except hCd22_1ug-14 were assigned to specific Bin(s).

[4] = molecular target: T2, hCD22 fragment Bin 7, IVR7 (aa561-668), …; assay: yeast display cell ELISA, native cells
Method: as §1, §2

[5] = molecular target: T3, hCD22 fragment Bin 6, IVR6 (aa476-575), displayed on yeast cells (human, UniProt P20273 495-594); assay: yeast display cell ELISA, OD on denatured over non-denatured CD22 fragment
T3 construct: range 476-575; Range is counted on the mature ECD, not on the UniProt entry; on P20273 it would be 495-594 (my arithmetic); also called CD22 Sub-Domain 6; not shown: Aga2-HA display fusion partner of vector pPNL6; MYC tag
T3 sequence (looked up): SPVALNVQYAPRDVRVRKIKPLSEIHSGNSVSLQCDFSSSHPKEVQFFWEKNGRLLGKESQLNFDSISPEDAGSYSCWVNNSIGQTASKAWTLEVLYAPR
Method: as §1, §2

[6] = molecular target: T3, hCD22 fragment Bin 6, IVR6 (aa476-575), …; assay: yeast display cell ELISA, biotinylated sdAb 250 nM
Method: as §1, §3

[7] = molecular target: T3, hCD22 fragment Bin 6, IVR6 (aa476-575), …; assay: yeast display cell ELISA, native cells
Method: as §1, §2

[8] = molecular target: T2, hCD22 fragment Bin 7, IVR7 (aa561-668), …; assay: yeast display cell ELISA
Method: as §1, §3

| Binder | Kd [1] [nM] | koff [1] [s⁻¹] | kon [1] [M⁻¹ s⁻¹] | CD22 Ratio (D/ND) [2] | OD450 [3] [OD450] | Non denatured CD22 OD [4] [OD450] | CD22 Ratio (D/ND) [5] | OD450 [6] [OD450] | Non denatured CD22 OD [7] [OD450] | binding result [8] |
| --- | --- | --- | --- | --- | --- | --- | --- | --- | --- | --- |
| hCD221ug-61 (VHH, single biotin at the VHH C-terminal (biotinylation signal sequence), llama VHH, expressed in E. coli TG1, IMAC purified, monomeric SEC fraction; also called VHH # 14; 3-hCD22 1ug-61) VHH: QVQLVESGGGLVQAGGSLRLSCAASMSSFSQYVMYWYRQAPGKQRELVATITSYSNTNYADSVKGRFTISRDNAKSIAYLQMDSLKPEDTAVYYCNAQYGSTFIRNHWDDWGQGTQVTVSS | 0.546 | 0.000681 | 1.25e+06 | 0.665 | 2.84 | 3.5 |  |  |  |  |
| hCD22pas-64 (VHH, single biotin at the VHH C-terminal (biotinylation signal sequence), llama VHH, expressed in E. coli TG1, IMAC purified, monomeric SEC fraction; also called VHH # 25; 7-hCD22 pas-64) VHH: QVQLVESGGGLVQAGGSLRLSCAASGSTFSLNTMAWYRQAPGNQREYVAAASSDGYTNYADSVRGRFTISRDNDKNTMYLQMNSLRPEDTAVYYCTWGTGRFADYIYWGQGTQVTVSS | 250 | 0.0271 | 108000 |  |  |  | 0.684 | 1.38 | 2.98 | no binding (tested: OD450 not above 0.25; sdAb 250 nM) |
| hCD221ug-13 (VHH, single biotin at the VHH C-terminal (biotinylation signal sequence), llama VHH, expressed in E. coli TG1, IMAC purified, monomeric SEC fraction; also called VHH # 21; 1-hCD22 1ug-13) VHH: QVQLVESGGGLVQAGDSLRLSCAGSGGSFSSVTMAWFRQAPGKDREFVAAITWSSPSTYYADSVKGRFTISRDNAKNTVYLQMNSLKPEDTAVYYCAGGRTGRGTSADTDEYNYWGQGTQVTVSS | 2.91 | 0.000675 | 232000 |  |  |  | 0.6 | 0.433 | 0.453 |  |
| hCD22pas-32 (VHH, single biotin at the VHH C-terminal (biotinylation signal sequence), llama VHH, expressed in E. coli TG1, IMAC purified, monomeric SEC fraction; also called VHH # 15; 6-hCD22 pas-32) VHH: QVQLVESGGGLVQAGGSLRLSCAVSGRIFRSYVLGWFRQAPGKERELVARIGWSDTYYADSVKGRFTISRDNAKNTVDLQMNSLKPEDTAVYYCAANSPPYGPQRDEFGYWGQGTQVTVSS | 23.4 | 0.00369 | 158000 |  |  |  |  |  |  | no binding (tested: OD450 not above 0.25; sdAb 250 nM) |
| hCD221ug-36 (VHH, single biotin at the VHH C-terminal (biotinylation signal sequence), llama VHH, expressed in E. coli TG1, IMAC purified, monomeric SEC fraction; also called VHH # 22; 4-hCD22 1ug-36) VHH: EVQLVDSGGGLVQAGGSLRVSCEASGITFSRAAMGWYRQRPGKERERVAVVNSDSSTIYADSVKGRFTISRDNAKNTVYLQMNSLEPEDTAVYYCWSPGFGSYWGQGTQVTVSS | 9.59 | 0.00114 | 119000 |  |  |  | 1 | 2.97 | 3.5 | no binding (tested: OD450 not above 0.25; sdAb 250 nM) |
| hCD221ug-10 (VHH, single biotin at the VHH C-terminal (biotinylation signal sequence), llama VHH, expressed in E. coli TG1, IMAC purified, monomeric SEC fraction; also called VHH # 23; 5-hCD22 1ug-10) VHH: QVQLVESGGGLVQAGGSLSVSCTASESTFSIMMGWFRQAPGKQREMVAVINSAGSTNYADSAEGRFTISRDLAKKTVSLQMNSLKPEDTAVYYCYVDGYFGQGTQVTVSS | 3.68 | 0.00176 | 477000 | 0.091 | 0.75 | 3.5 |  |  |  |  |
| hCD221ug-80 (VHH, single biotin at the VHH C-terminal (biotinylation signal sequence), llama VHH, expressed in E. coli TG1, IMAC purified, monomeric SEC fraction; also called VHH # 1; 2-hCD22 1ug-80) VHH: QVQLVESGGGLVQPGGSLRLSCTFSGFTLDYYVMVWFRQAPGKEREAVSCITSDGVTYYADSVKGRFTISRDNAKNTVYLQMNRVKPEDTAVYYCAVDKPFYDGGIQYTCPVDFDSWGQGAQVTVSS | 30.3 | 0.000633 | 20900 |  |  |  | 1.02 | 2.25 | 2.57 |  |
| hCD22pas-24 (VHH, single biotin at the VHH C-terminal (biotinylation signal sequence), llama VHH, expressed in E. coli TG1, IMAC purified, monomeric SEC fraction; also called VHH # 26; 8-hCD22 pas-24) VHH: QVQLVESGGGLVQAGGSLRLSCSASGITSSINSMGWHRQAPGKQRELVASIGRGGSGSTKYADSGKGRFLISRDNNKNILFLEMNSLKPEDTADYYCLEVTTDLSSYWGRGTQVTVSS | 26 | 0.00386 | 148000 | 0.603 | 2.89 | 3.5 |  |  |  |  |
